# Test results reported in the supplement of paper PMC9112550, “Optimization of the antimicrobial peptide Bac7 by deep mutational scanning” (BMC Biology, 2022).
# Tested on: Escherichia coli TOP10
# Assay: shrunken log2 fold change of peptide-encoding DNA abundance (4.5 h post-induction vs induction); higher = less antimicrobial activity (less host growth inhibition)
# Conditions: time post-induction: 4.5 h; library: site-saturation at positions 5, 18, 19, 20
# 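Also: peptides expressed intracellularly from a pBAD plasmid library in pooled LB shake-flask culture, induced with 0.3% L-arabinose, DNA abundance read by NGS, three biological replicates, DESeq2 with apeglm shrinkage.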
row,Sequence,shrunken log2 fold change
1,RRIRSRPPRLPRPRPRPEPMPRP,0.54
2,RRIRPRPPRLPRPRPRPITKPRP,-0.0256
3,RRIRARPPRLPRPRPRPHMLPRP,-0.196
4,RRIRARPPRLPRPRPRPRPFPRP,0.562
5,RRIRCRPPRLPRPRPRPYKCPRP,-0.273
6,RRIRCRPPRLPRPRPRPCTEPRP,-0.186
7,RRIRGRPPRLPRPRPRPIHVPRP,-0.315
8,RRIRTRPPRLPRPRPRPCHQPRP,-0.172
9,RRIRERPPRLPRPRPRPGMKPRP,0.0657
10,RRIRWRPPRLPRPRPRPPIGPRP,0.324
11,RRIRCRPPRLPRPRPRPIEYPRP,-0.148
12,RRIRHRPPRLPRPRPRPGWIPRP,-0.051
13,RRIRERPPRLPRPRPRPHEHPRP,-0.205
14,RRIRWRPPRLPRPRPRPCLLPRP,-0.188
15,RRIRKRPPRLPRPRPRPPSPPRP,0.588
16,RRIRERPPRLPRPRPRPYLKPRP,0.0189
17,RRIRIRPPRLPRPRPRPIFIPRP,-0.317
18,RRIRGRPPRLPRPRPRPSWKPRP,0.437
19,RRIRMRPPRLPRPRPRPHFEPRP,-0.0874
20,RRIRERPPRLPRPRPRPQPWPRP,-0.0127
21,RRIRRRPPRLPRPRPRPHCDPRP,-0.164
22,RRIRMRPPRLPRPRPRPPRLPRP,1.06
23,RRIRRRPPRLPRPRPRPCAMPRP,-0.0039
24,RRIRHRPPRLPRPRPRPGPFPRP,-0.225
25,RRIRTRPPRLPRPRPRPQQSPRP,-0.0133
26,RRIRNRPPRLPRPRPRPMPCPRP,0.05
27,RRIRRRPPRLPRPRPRPKTEPRP,0.452

row,Sequence,shrunken log2 fold change
1,RRIRDRPPRLPRPRPRPKGKPRP,0.142
2,RRIRVRPPRLPRPRPRPRGAPRP,0.567
3,RRIRHRPPRLPRPRPRPNSYPRP,0.118
4,RRIRYRPPRLPRPRPRPLATPRP,-0.378
5,RRIRDRPPRLPRPRPRPLNYPRP,-0.372
6,RRIRGRPPRLPRPRPRPLTNPRP,0.364
7,RRIRVRPPRLPRPRPRPHKQPRP,0.0253
8,RRIRERPPRLPRPRPRPSNGPRP,-0.0949
9,RRIRMRPPRLPRPRPRPWKCPRP,-0.174
10,RRIRPRPPRLPRPRPRPCEAPRP,0.0756
11,RRIRLRPPRLPRPRPRPEMVPRP,0.201
12,RRIRDRPPRLPRPRPRPAMYPRP,-0.0257
13,RRIRIRPPRLPRPRPRPGTVPRP,-0.624
14,RRIRGRPPRLPRPRPRPDCLPRP,0.975
15,RRIRARPPRLPRPRPRPNQSPRP,0.0591
16,RRIRKRPPRLPRPRPRPEHLPRP,0.132
17,RRIRPRPPRLPRPRPRPKFWPRP,0.414
18,RRIRYRPPRLPRPRPRPPMYPRP,-1.28
19,RRIRTRPPRLPRPRPRPIHAPRP,-0.0176
20,RRIRSRPPRLPRPRPRPMLNPRP,-0.198
21,RRIRYRPPRLPRPRPRPHTRPRP,-0.494
22,RRIRWRPPRLPRPRPRPKWDPRP,0.185
23,RRIRNRPPRLPRPRPRPEMCPRP,0.00911
24,RRIRWRPPRLPRPRPRPMICPRP,-0.00725
25,RRIRLRPPRLPRPRPRPRWTPRP,0.404
26,RRIRQRPPRLPRPRPRPQNEPRP,0.121
27,RRIRPRPPRLPRPRPRPCDGPRP,0.0661

row,Sequence,shrunken log2 fold change
1,RRIRMRPPRLPRPRPRPLNNPRP,0.0119
2,RRIRNRPPRLPRPRPRPKEHPRP,-0.0991
3,RRIRGRPPRLPRPRPRPGERPRP,0.731
4,RRIRLRPPRLPRPRPRPEPSPRP,0.787
5,RRIRTRPPRLPRPRPRPVHKPRP,-0.285
6,RRIRYRPPRLPRPRPRPDMHPRP,-0.231
7,RRIRRRPPRLPRPRPRPEMEPRP,0.0355
8,RRIRRRPPRLPRPRPRPWLDPRP,-0.0721
9,RRIRIRPPRLPRPRPRPGIDPRP,-0.00862
10,RRIRNRPPRLPRPRPRPENPPRP,0.0192
11,RRIRLRPPRLPRPRPRPIIDPRP,-0.256
12,RRIRPRPPRLPRPRPRPEYQPRP,0.288
13,RRIRTRPPRLPRPRPRPTCKPRP,-0.047
14,RRIRARPPRLPRPRPRPNSIPRP,-0.125
15,RRIRYRPPRLPRPRPRPLGEPRP,-0.172
16,RRIRIRPPRLPRPRPRPFAKPRP,-0.295
17,RRIRVRPPRLPRPRPRPFIFPRP,-0.177
18,RRIRNRPPRLPRPRPRPQEIPRP,-0.00783
19,RRIRLRPPRLPRPRPRPVKEPRP,0.0114
20,RRIRQRPPRLPRPRPRPARNPRP,0.298
21,RRIRFRPPRLPRPRPRPAIAPRP,0.0519
22,RRIRMRPPRLPRPRPRPFWHPRP,-0.00226
23,RRIRNRPPRLPRPRPRPVNNPRP,-0.647
24,RRIRVRPPRLPRPRPRPVCPPRP,0.0825
25,RRIRARPPRLPRPRPRPAEQPRP,0.728
